Test results: the supplement of paper PMC12855868

B1: library; numbered along this chain (parent)
chain: MAAAGGARLLRAASAVLGGPAGRWLHHAGSRAGSSGLLRNRGPGGSAEASRSLSVSARARSSSEDKITVHFINRDGETLTTKGKVGDSLLDVVVENNLDIDGFGACEGTLACSTCHLIFEDHIYEKLDAITDEENDMLDLAYGLTDRSRLGCQICLTKSMDNMTVRVPETVADARQSIDVGKTS

Variants of: B1
Assay: scaled log2 fold change in cell abundance, elesclomol vs control (0 = silent mean, 1 = nonsense mean) (scaled log2 ratio); higher = higher viability under elesclomol (loss of FDX1 cuproptosis function)
Settings: glucose 10 mM
[1] = with ABC1 FDX1 KO, elesclomol 5 nM, 14 days
[2] = with HEK293T FDX1 KO, elesclomol 40 nM, 11 days
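Further: variant abundance is its share of total variant reads in each endpoint sample, from next-generation sequencing of the integrated ORF PCR-amplified out of genomic DNA.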

Row | Variant | scaled log2 fold change [1] | scaled log2 fold change [2]
1 | MAAAGGARLLRAASAVLGGPAGRWLHHAGSRAGSSGLLRNRGPGGSAEASRSLSVSARARSSSEDKITVHFINRDGETLTTKGKVGDSLLDVVVENNLDIDGFGACEGTLACSTCHLIFEDHIYEKLDAITDEENDMLDLAYGLTDRSRLGCQICLTKSMCNMTVRVPETVADARQSIDVGKTS | 0.35 | 0.607
2 | MAAAGGARLLRAASAVLGGPAGRWLHHAGSRAGSSGLLRNRGPGGSAEASRSLSVSARARSSSEDKITVHFINRDGETLTTKGKVGDSLLDVVVENNLDIDGFGACEGTLACSTCHLIFEDHIYEKLDAITDEENDMLDLAYGLTDRSRLGCQICLTKSMFNMTVRVPETVADARQSIDVGKTS | 0.305 | 0.236
3 | MAAAGGARLLRAASAVLGGPAGRWLHHAGSRAGSSGLLRNRGPGGSAEASRSLSVSARARSSSEDKITVHFINRDGETLTTKGKVGDSLLDVVVENNLDIDGFGACEGTLACSTCHLIFEDHIYEKLDAITDEENDMLDLAYGLTDRSRLGCQICLTKSMKNMTVRVPETVADARQSIDVGKTS | 0.234 | 0.181
4 | MAAAGGARLLRAASAVLGGPAGRWLHHAGSRAGSSGLLRNRGPGGSAEASRSLSVSARARSSSEDKITVHFINRDGETLTTKGKVGDSLLDVVVENNLDIDGFGACEGTLACSTCHLIFEDHIYEKLDAITDEENDMLDLAYGLTDRSRLGCQICLTKSMENMTVRVPETVADARQSIDVGKTS | -0.0246 | 0.705
5 | MAAAGGARLLRAASAVLGGPAGRWLHHAGSRAGSSGLLRNRGPGGSAEASRSLSVSARARSSSEDKITVHFINRDGETLTTKGKVGDSLLDVVVENNLDIDGFGACEGTLACSTCHLIFEDHIYEKLDAITDEENDMLDLAYGLTDRSRLGCQICLTKSMHNMTVRVPETVADARQSIDVGKTS | -0.161 | -0.464
6 | MAAAGGARLLRAASAVLGGPAGRWLHHAGSRAGSSGLLRNRGPGGSAEASRSLSVSARARSSSEDKITVHFINRDGETLTTKGKVGDSLLDVVVENNLDIDGFGACEGTLACSTCHLIFEDHIYEKLDAITDEENDMLDLAYGLTDRSRLGCQICLTKSMMNMTVRVPETVADARQSIDVGKTS | -0.0698 | -0.0785
7 | MAAAGGARLLRAASAVLGGPAGRWLHHAGSRAGSSGLLRNRGPGGSAEASRSLSVSARARSSSEDKITVHFINRDGETLTTKGKVGDSLLDVVVENNLDIDGFGACEGTLACSTCHLIFEDHIYEKLDAITDEENDMLDLAYGLTDRSRLGCQICLTKSMGNMTVRVPETVADARQSIDVGKTS | -0.198 | –
8 | MAAAGGARLLRAASAVLGGPAGRWLHHAGSRAGSSGLLRNRGPGGSAEASRSLSVSARARSSSEDKITVHFINRDGETLTTKGKVGDSLLDVVVENNLDIDGFGACEGTLACSTCHLIFEDHIYEKLDAITDEENDMLDLAYGLTDRSRLGCQICLTKSMINMTVRVPETVADARQSIDVGKTS | 0.0246 | -0.332
9 | MAAAGGARLLRAASAVLGGPAGRWLHHAGSRAGSSGLLRNRGPGGSAEASRSLSVSARARSSSEDKITVHFINRDGETLTTKGKVGDSLLDVVVENNLDIDGFGACEGTLACSTCHLIFEDHIYEKLDAITDEENDMLDLAYGLTDRSRLGCQICLTKSMANMTVRVPETVADARQSIDVGKTS | -0.111 | –
10 | MAAAGGARLLRAASAVLGGPAGRWLHHAGSRAGSSGLLRNRGPGGSAEASRSLSVSARARSSSEDKITVHFINRDGETLTTKGKVGDSLLDVVVENNLDIDGFGACEGTLACSTCHLIFEDHIYEKLDAITDEENDMLDLAYGLTDRSRLGCQICLTKSMLNMTVRVPETVADARQSIDVGKTS | 0.312 | 0.16
11 | MAAAGGARLLRAASAVLGGPAGRWLHHAGSRAGSSGLLRNRGPGGSAEASRSLSVSARARSSSEDKITVHFINRDGETLTTKGKVGDSLLDVVVENNLDIDGFGACEGTLACSTCHLIFEDHIYEKLDAITDEENDMLDLAYGLTDRSRLGCQICLTKSWDNMTVRVPETVADARQSIDVGKTS | 0.366 | -0.0391
12 | MAAAGGARLLRAASAVLGGPAGRWLHHAGSRAGSSGLLRNRGPGGSAEASRSLSVSARARSSSEDKITVHFINRDGETLTTKGKVGDSLLDVVVENNLDIDGFGACEGTLACSTCHLIFEDHIYEKLDAITDEENDMLDLAYGLTDRSRLGCQICLTKSSDNMTVRVPETVADARQSIDVGKTS | 0.278 | 0.0347
13 | MAAAGGARLLRAASAVLGGPAGRWLHHAGSRAGSSGLLRNRGPGGSAEASRSLSVSARARSSSEDKITVHFINRDGETLTTKGKVGDSLLDVVVENNLDIDGFGACEGTLACSTCHLIFEDHIYEKLDAITDEENDMLDLAYGLTDRSRLGCQICLTKSYDNMTVRVPETVADARQSIDVGKTS | 0.274 | 0.713
14 | MAAAGGARLLRAASAVLGGPAGRWLHHAGSRAGSSGLLRNRGPGGSAEASRSLSVSARARSSSEDKITVHFINRDGETLTTKGKVGDSLLDVVVENNLDIDGFGACEGTLACSTCHLIFEDHIYEKLDAITDEENDMLDLAYGLTDRSRLGCQICLTKSQDNMTVRVPETVADARQSIDVGKTS | 0.0622 | 0.682
15 | MAAAGGARLLRAASAVLGGPAGRWLHHAGSRAGSSGLLRNRGPGGSAEASRSLSVSARARSSSEDKITVHFINRDGETLTTKGKVGDSLLDVVVENNLDIDGFGACEGTLACSTCHLIFEDHIYEKLDAITDEENDMLDLAYGLTDRSRLGCQICLTKSPDNMTVRVPETVADARQSIDVGKTS | 1.06 | 1.11
16 | MAAAGGARLLRAASAVLGGPAGRWLHHAGSRAGSSGLLRNRGPGGSAEASRSLSVSARARSSSEDKITVHFINRDGETLTTKGKVGDSLLDVVVENNLDIDGFGACEGTLACSTCHLIFEDHIYEKLDAITDEENDMLDLAYGLTDRSRLGCQICLTKSVDNMTVRVPETVADARQSIDVGKTS | -0.27 | –
17 | MAAAGGARLLRAASAVLGGPAGRWLHHAGSRAGSSGLLRNRGPGGSAEASRSLSVSARARSSSEDKITVHFINRDGETLTTKGKVGDSLLDVVVENNLDIDGFGACEGTLACSTCHLIFEDHIYEKLDAITDEENDMLDLAYGLTDRSRLGCQICLTKSRDNMTVRVPETVADARQSIDVGKTS | 0.249 | 0.049
18 | MAAAGGARLLRAASAVLGGPAGRWLHHAGSRAGSSGLLRNRGPGGSAEASRSLSVSARARSSSEDKITVHFINRDGETLTTKGKVGDSLLDVVVENNLDIDGFGACEGTLACSTCHLIFEDHIYEKLDAITDEENDMLDLAYGLTDRSRLGCQICLTKSTDNMTVRVPETVADARQSIDVGKTS | 0.347 | 0.674
